Test results from US5156956A, “Transgultaminase” (Ajinomoto Co., Inc., priority 1987, dated 1992).

What was measured:
Rabbit myosin = test: Gelation, test tube inversion method; type: biochemical; parameters: key: .smallcircle.: gelled; Δ: weakly gelled; x: remained as solution; conditions: BTGase 0.02 U/mg protein, 55° C., 1 h, MTGase 0.1 U/mg, 37° C.
Experimental: 2) Rabbit myosin was prepared as follows for use as a substrate for BTGase.
The concentration of protein was 1.5%. BTGase was added to the myosin under the same conditions as under 1) above to examine gelation ability.
(§1) For purposes of comparison, the results of gelation ability test with MTGase are also shown. The amount of MTGase added was 0.1 U per 1 mg of substrate protein.

Gelatin [1] = test: Gelatin gel after heating in boiling water bath; type: biochemical; parameters: key: x: complete solution; .smallcircle.: gelled condition (not dissolved even after heating); conditions: 0.02 U/mg protein, 37° C. 1 h, then boiling water bath 10 minutes
Experimental: 0.1M Tris-HCl buffer (pH 7.6) was added to gelatin (manufactured by Nitta Gelatin Co., Ltd.) so as to form 5.10 wt. % solution. Gelatin was completely dissolved at 60° C. for 3 minutes and the same BTGase as that of Example 4 was added to the solution in 0.02 U/mg protein. After thoroughly mixing, the mixture was reacted at 37° C. for an hour and then heated in a boiling water bath for 10 minutes. Immediately thereafter, the condition was observed.
For purposes of comparison, the system which was identically treated except for adding no BTGase was used as control.

[2] = tested on: oxhide-derived atelo-collagen; test: Gelation of atelo-collagen solutions; type: biochemical, ox; parameters: key: .smallcircle.: gelled; Δ: weakly gelled; x: remained as solution; conditions: 0.05 U/mg protein; for Gelation, Immediately After Completion of Incubation: 55° C. 60 minutes; for Gelation, After Heating at 100° C.: 100° C. 15 minutes; for Gelation, After Allowing to Stand for 60 Minutes: room temperature
Experimental: A necessary amount of oxhide-derived atelo-collagen powders (manufactured by Kouken K.K.) were taken in a test tube and 2 ml of 0.1M Tris-HCl buffer (pH 7.5) was added thereto. After maintaining in a water bath at 55° C. for 15 minutes, the mixture was stirred to prepare 3 to 10% atelo-collagen solutions. Before the solutions of high concentration were gelled due to cooling, BTGase was added thereto in 0.05 U/mg protein followed by incubation at 55° C. for 60 minutes. As a control for the all samples, 10% atelo-collagen solution with no BTGase added was also incubated likewise. Immediately after completion of the incubation, the system was allowed to stand at room temperature for 60 minutes. Then the system was further kept in a water bath of 100° C. for 15 minutes and then the condition in the test tube was observed.

[3] = Sausage: rheometer and organoleptic evaluation; conditions: 1 unit per 1 g of dry pork, 55° C. 2 h, then 80° C. 30 min
Experimental: Physical properties were measured with a rheometer (manufactured by Yamaden Co., Ltd.) and organoleptic evaluation (n=10) was performed. The amount of BTGase added was 1 unit per 1 g of dry pork. The enzyme reaction was carried out at 55° C. for 2 hours. After completion of the reaction, heating was performed at 80° C. for 30 minutes to make a product. As a control, BTGase-free product was used.

[4] = tested on: Ajipron S-2 (soybean protein isolate); test: Gelation, test tube inversion method; type: biochemical; parameters: key: .smallcircle.: gelled; Δ: weakly gelled; x: remained as solution; conditions: BTGase 0.02 U/mg protein, 55° C., 1 h, MTGase 0.1 U/mg, 37° C.
Experimental: (§2) 1) The BTGase (freeze dried product, specific activity of 2.50 Units/mg protein) prepared in Example 1 was added to 5 ml of each of 5 and 10 wt. % solutions or suspensions of protein foodstuffs prepared by the method described in Example 1 of Published Unexamined Japanese Patent Application No. 149645/83 or purchased, namely, (1) αsi -casein, (2) Na-caseinate, (3) soybean 11S globulin, (4) soybean 7S globulin, (5) soybean protein isolate "Ajipron S-2" (manufactured by Ajinomoto Co., Inc.), (6) water-extracted soybean protein, (7) acid-precipitated soybean protein, (8) soybean protein particles, (9) soybean protein micelles and (10) gelatin in 0.02 U per 1 mg of protein followed by shake incubation at 55° C. for an hour. After allowing to stand at room temperature, test tubes with samples were turned upside down, whereby gelation was determined by noting whether the samples drifted down or not.
as §1

[5] = tested on: Water-extracted soybean protein; test: Gelation, test tube inversion method; type: biochemical; parameters: key: .smallcircle.: gelled; Δ: weakly gelled; x: remained as solution; conditions: BTGase 0.02 U/mg protein, 55° C., 1 h, MTGase 0.1 U/mg, 37° C.
Experimental: as §2, §1

Soybean 11S globulin = test: Gelation, test tube inversion method; type: biochemical; parameters: key: .smallcircle.: gelled; Δ: weakly gelled; x: remained as solution; conditions: BTGase 0.02 U/mg protein, 55° C., 1 h, MTGase 0.1 U/mg, 37° C.
Experimental: as §2, §1

[6] = tested on: Soybean protein particles; test: Gelation, test tube inversion method; type: biochemical; parameters: key: .smallcircle.: gelled; Δ: weakly gelled; x: remained as solution; conditions: BTGase 0.02 U/mg protein, 55° C., 1 h, MTGase 0.1 U/mg, 37° C.
Experimental: as §2, §1

Na-Caseinate = test: Gelation, test tube inversion method; type: biochemical; parameters: key: .smallcircle.: gelled; Δ: weakly gelled; x: remained as solution; conditions: BTGase 0.02 U/mg protein, 55° C., 1 h, MTGase 0.1 U/mg, 37° C.
Experimental: as §2, §1

Soybean 7S globulin = test: Gelation, test tube inversion method; type: biochemical; parameters: key: .smallcircle.: gelled; Δ: weakly gelled; x: remained as solution; conditions: BTGase 0.02 U/mg protein, 55° C., 1 h, MTGase 0.1 U/mg, 37° C.
Experimental: as §2, §1

[7] = tested on: Acid-precipitated soybean protein; test: Gelation, test tube inversion method; type: biochemical; parameters: key: .smallcircle.: gelled; Δ: weakly gelled; x: remained as solution; conditions: BTGase 0.02 U/mg protein, 55° C., 1 h, MTGase 0.1 U/mg, 37° C.
Experimental: as §2, §1

Soybean protein micells = test: Gelation, test tube inversion method; type: biochemical; parameters: key: .smallcircle.: gelled; Δ: weakly gelled; x: remained as solution; conditions: BTGase 0.02 U/mg protein, 55° C., 1 h, MTGase 0.1 U/mg, 37° C.
Experimental: as §2, §1

Gelatin [8] = test: Gelation, test tube inversion method; type: biochemical; parameters: key: .smallcircle.: gelled; Δ: weakly gelled; x: remained as solution; conditions: BTGase 0.02 U/mg protein, 55° C., 1 h, MTGase 0.1 U/mg, 37° C.
Experimental: as §2, §1

αS1 -Casein = test: Gelation, test tube inversion method; type: biochemical; parameters: key: .smallcircle.: gelled; Δ: weakly gelled; x: remained as solution; conditions: BTGase 0.02 U/mg protein, 55° C., 1 h, MTGase 0.1 U/mg, 37° C.
Experimental: as §2, §1

B1: BTGase: microorganism-derived transglutaminase; in Examples 4-11 the freeze dried product prepared in Example 1 (S. mobaraense, i.e. BTG-1) (protein, UniProt P81453 77-407, looked up)
Protein-glutamine …: DSDDRVTPPAEPLDRMPDPYRPSYGRAETVVNNYIRKWQQVYSHRDGRKQQMTEEQREWLSYGCVGVTWVNSGQYPTNRLAFASFDEDRFKNELKNGRPRSGETRAEFEGRVAKESFDEEKGFQRAREVASVMNRALENAHDESAYLDNLKKELANGNDALRNEDARSPFYSALRNTPSFKERNGGNHDPSRMKAVIYSKHFWSGQDRSSSADKRKYGDPDAFRPAPGTGLVDMSRDRNIPRSPTSPGEGFVNFDYGWFGAQTEADADKTVWTHGNHYHAPNGSLGAMHVYESKFRNWSEGYSDFDRGAYVITFIPKSWNTAPDKVKQGWP
Gelation, Rabbit myosin 1.5% (Rabbit myosin): .smallcircle.
Condition of 5% Gelatin, +BTG (Gelatin [1]): .smallcircle.
Condition of 10% Gelatin, +BTG (Gelatin [1]): .smallcircle.
Gelation, Immediately After Completion of Incubation ([2]; 3% Solution): .smallcircle.
Gelation, After Heating at 100° C. ([2]; 3% Solution): .smallcircle.
Gelation, After Allowing to Stand for 60 Minutes ([2]; 3% Solution): .smallcircle.
Gelation, Immediately After Completion of Incubation ([2]; 5% Solution): .smallcircle.
Gelation, After Heating at 100° C. ([2]; 5% Solution): .smallcircle.
Gelation, After Allowing to Stand for 60 Minutes ([2]; 5% Solution): .smallcircle.
Gelation, Immediately After Completion of Incubation ([2]; 10% Solution): .smallcircle.
Gelation, After Heating at 100° C. ([2]; 10% Solution): .smallcircle.
Gelation, After Allowing to Stand for 60 Minutes ([2]; 10% Solution): .smallcircle.
Viscosity Coefficient [3]: 1.92 × 10^9 dyn.sec.cm^-2
Gelation, Ajipron S-2 5% ([4]; 5%): .smallcircle.
Gelation, Ajipron S-2 10% ([4]; 10%): .smallcircle.
Gelation, Water-extracted soybean protein 5% ([5]; 5%): .smallcircle.
Gelation, Water-extracted soybean protein 10% ([5]; 10%): .smallcircle.
Gelation, Soybean 11S globulin 5% (Soybean 11S globulin; 5%): .smallcircle.
Gelation, Soybean 11S globulin 10% (Soybean 11S globulin; 10%): .smallcircle.
Gelation, Soybean protein particles 5% ([6]; 5%): .smallcircle.
Gelation, Soybean protein particles 10% ([6]; 10%): .smallcircle.
Gelation, Na-Caseinate 5% (Na-Caseinate; 5%): .smallcircle.
Gelation, Na-Caseinate 10% (Na-Caseinate; 10%): .smallcircle.
Gelation, Soybean 7S globulin 5% (Soybean 7S globulin; 5%): .smallcircle.
Gelation, Soybean 7S globulin 10% (Soybean 7S globulin; 10%): .smallcircle.
Gelation, Acid-precipitated soybean protein 5% ([7]; 5%): .smallcircle.
Gelation, Acid-precipitated soybean protein 10% ([7]; 10%): .smallcircle.
Gelation, Soybean protein micells 5% (Soybean protein micells; 5%): Δ
Gelation, Soybean protein micells 10% (Soybean protein micells; 10%): .smallcircle.
Gelation, Gelatin 5% (Gelatin [8]; 5%): .smallcircle.
Gelation, Gelatin 10% (Gelatin [8]; 10%): .smallcircle.
Gelation, αS1 -Casein 5% (αS1 -Casein; 5%): .smallcircle.
Gelation, αS1 -Casein 10% (αS1 -Casein; 10%): .smallcircle.
